# Article PMC2954210, “Structure of an essential bacterial protein YeaZ (TM0874) from Thermotoga maritima at 2.5 Å resolution” (Acta Crystallographica Section F: Structural Biology and …, 2009)
# B1: YeaZ (TM0874) from Thermotoga maritima (natural protein, UniProt Q9WZX7 1-206, looked up)
# chain: MNVLALDTSQRIRIGLRKGEDLFEISYTGEKKHAEILPVVVKKLLDELDLKVKDLDVVGVGIGPGGLTGLRVGIATVVGLVSPYDIPVAPLNSFEMTAKSCPADGVVLVARRARKGYHYCAVYLKDKGLNPLKEPSVVSDEELEEITKEFSPKIVLKDDLLISPAVLVEESERLFREKKTIHYYEIEPLYLQKSIAELNWEKKKRG
# modifications: selenomethionine derivative
# notes: YeaZ (TM0874), Thermotoga maritima, full-length protein, residues 1-206; Swiss-Prot Q9WZX7; Cloned into plasmid pMH4; In the crystal model residues 1-193 (chain A) and 0-187 (chain B) are ordered; residue 0 is the last residue of the His tag; also called TmYeaZ; His-tagged SeMet-TmYeaZ; source: E. coli GeneHogs, selenomethionine-containing medium, purified (nickel-chelating resin, Resource Q)
# Molecular target: the molecule itself
# Assay: SEC-MALS; Superdex 200 column coupled with miniDAWN static light-scattering and Optilab refractive-index detectors; 20 mM Tris-HCl pH 7.9, 150 mM NaCl, 0.02% sodium azide
protein,measurement,value
B1,stoichiometry N,2
